Tested on: MS2 coat protein
Test: apparent KD of MS2 coat protein; higher = weaker reporter binding
Conditions: Eterna round: R107
Protocol: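 RNA-MaP round R107: designed RNA switches with theophylline, tryptophan, arginine or FMN aptamers are transcribed on-chip within common flanks. They are titrated with SNAP-549-labelled MS2 coat protein in RNA-MaP buffer (100 mM Tris pH 7.5, 80 mM KCl, 4 mM MgCl2), without ligand or with the indicated ligand. Median apparent KD per design.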

[1] = input ligand: theophylline 20 uM
[2] = input ligand: theophylline 2 mM
[3] = input ligand: tryptophan 2.4 mM

Sequence | apparent KD of MS2 coat protein (input ligand: arginine 13.2 mM) | apparent KD of MS2 coat protein [1] | apparent KD of MS2 coat protein [2] | apparent KD of MS2 coat protein [3] | apparent KD of MS2 coat protein (input ligand: none)
GUUGAGACCUCGGCCGCCACUCGCCAUGAGGAUCUCCCAUGUAACAUGAGGAUCACCCAUGUACUGAGGACCGGGAGGUCCUUGU [Same State Tryptophan B GF 16] | 12 nM | 18.5 nM | 15.5 nM |  | 
UUAGAUAUGACGGAUACCAGCGUGUUGUAGAACAUGAGGAUCACCCAUGUAGUGAUCGAGCGCCCUUGGCAGCUGGUAUGUUUGG [7.T] | 175 nM | 203 nM |  | 335 nM | 
CCGUCACAUGAGGAUCACCCAUGUGCGGAAGGAGCGGACGACAGUCCAGGUAGGUCGCCGUAUAGCCAAUGACCAGCAGUGUCGG [Betesotiqu] | 5.9 nM | 20.8 nM | 9.93 nM | 13.9 nM | 10.6 nM
GUUACCAUGUCGGCCGCCACUAACAAGGUUAUGGCAAGUCUACACGACAUGAGGAUCACCCAUGUUAGGACCGGGACCCAUACCC [theeternabot_exclusion_MS2_Trp_B_44] | 12.2 nM | 17.5 nM | 16.2 nM |  | 
AUAAGUGUAAGAUACCGCACGCUGGAGGAAGGAGCGCGGAUUAACGCAGGUAGGUCGCCUCGUACAUGAGGAUCACCCAUGUGGC [#14 Same State - Arginine A] | 41.7 nM | 41.5 nM | 38.7 nM | 35.2 nM | 22.5 nM
UUAAAUGUGACGGAUACCAGCGUGUUGUAGAACAUGAGGAUCACCCAUGUAGUGAUCAAGCGCCCUUGGCAGCUGGUAUGUUUGA [7.Z] | 227 nM | 224 nM |  | 124 nM | 
GGUGGCGGGACUGAUACCAGCCACCACCGAUAGACCACAUGAGGAUCACCCAUGUUGGGUGGCCCUUGGCAGCAGUCUUGCUGCC [#1 Same State - Theophylline B Attempt #12 (HarryS)] | 24.2 nM | 432 nM | 1880 nM | 907 nM | 206 nM
UGAACAUGAGGAUCACCCAUGUAGAGGGAAGGAGCGUCGAAGAAGACAGGUAGGUCGCCCAGAAAGAAAUCCUCAUGGAUAAGAA [Same State Arginine A GF2] | 86.2 nM | 152 nM | 122 nM | 69 nM | 54.4 nM
ACAUGAGGAUCACCCAUGUACAUGAGGGAAGGAGCGGUACAUGUGCCAGGUAGGUCGCCCAACAGCAUCAGCCAUGUACAACAGG [zqwmullin] | 41.3 nM | 72.6 nM | 79.2 nM | 61 nM | 162 nM
UAUACAUGAGGAUCACCCAUGUGCCAUGAUACCAGACAUGAAAAUGUCCCUUGGCAGCAUGGGAAAUGUAUAGCGGGAAACCCGA [Slatina] | 52.7 nM | 201 nM |  | 60.8 nM | 
GUACGAGUUGACUGUGAGACUGGCGUGGAAGGAGCGCACGGAGGUGCAGGUAGGUCGCCACAUGAGGAUCACCCAUGUCGGGCCG [Qutigeveat] | 19.3 nM | 31.6 nM | 40.1 nM | 26.7 nM | 26.4 nM
GGAUAGGACACGGCCGCCACUAUCUAGGAUACUAGCAACAUUUGGGUAUAUGAGGAUCACCCAUAUAGGACCGGGUGUCCUAUCG | 138 nM | 330 nM | 303 nM | 471 nM | 214 nM
ACAUCCAGAUUAAUCGUGGGCAUACUCGAUACCAGUAUUUUAAUCUACCCUUGGCAGCGACAUGAGGAUCACCCAUGUGCGAUGA [XTheo A #11] | 11.7 nM | 13.9 nM |  | 12.4 nM | 
CGGUUUGUGAUGGAUACCAGCAGAGUGACUGUUUAUCCUGACAUGAGGAUCACCCAUGUGUGCCCUUGGCAGCUGUUGUGGGCUG [8.aA] | 66.3 nM | 111 nM |  | 65.7 nM | 
UUCUUUAAGUCGGCCGCCACUGAAACAUGAGGAUCACCCAUGUAAAUUUGGGAGUAGUUAUAUUACAGGACCGGGACUAUAGUAA [JR_ExcTryptoB_Sub020] | 34.8 nM | 48.8 nM | 51 nM |  | 
AGGGAAUGAAUAGAAUGAGAUGACACAGAAGGAGCGCCGAUUAAGGCAGGUAGGUCGCUGACAACAUGAGGAUCACCCAUGUUAA [#11 Same State - Arginine A] | 8.73 nM | 14.1 nM | 17.5 nM | 20.6 nM | 17 nM
UUGAACAUGAGGAUCACCCAUGUGGAUGAUACCAGCUAAAACAUAAGCCCUUGGCAGCAUUAAAAUGAAAUAUCGAAAAGGAAAG [theeternabot_sameState_MS2_Theo_A_1] | 95.1 nM | 179 nM |  | 127 nM | 
AUAACUGCCAAGGAUCAUGGGUGAGCAGAUACCAGCUAGGAAACUAGCCCUUGGCAGCUGCAACAUGAGGAUCACCCAUGUAAUA [(T)'-(M)'-(T1)-(T2)-(M1)-(M2)_Design8] | 38.5 nM | 83.8 nM | 119 nM | 90.4 nM | 147 nM
GGACUAACCAGAAGGAGCGGCACGCAGAAACUGCAAUUUCCUCCGCACGAGGAUCACCCGUGUCAGGUAGGUCGCUGGUUAGUCG | 21.8 nM | 27.5 nM | 24.5 nM | 25.4 nM | 20.4 nM

Sequence | apparent KD of MS2 coat protein (input ligand: arginine 13.2 mM) | apparent KD of MS2 coat protein [1] | apparent KD of MS2 coat protein [2] | apparent KD of MS2 coat protein [3] | apparent KD of MS2 coat protein (input ligand: none)
ACGAUAGCACAAGAGGAUCACCCUUGUGAUACCAGCCUGGAAACAGGCCCUUGGCAGCACACAAAUAAAUUGUAACUAUCGAAUA [TheoAX5 #MicroSwitchBubble #AlternativeMS2] | 22.5 nM | 43.9 nM | 112 nM | 29.3 nM | 23.6 nM
AAUUAAAACUGAAGGAGCGUCGUGCGUGGGUGCGUCCCACAUGAGGAUCACCCAUGUGGUUGACAGGUAGGUCGCAGAAUAAUUU [Exclusion - Arginine B] | 66.9 nM | 95.5 nM | 155 nM | 36.6 nM | 49.7 nM
CCUUACGUUGGGCAGCCAGUUCGAAGUGAUACCAGUCACAAAAGUGACCCUUGGCAGCACCGCACAUGAGGAUCACCCAUGUCUA [SSThA NP+V+V2 #8 Same Structure] | 36.4 nM | 55.1 nM | 63.3 nM | 62.8 nM | 34.8 nM
CCGUUUUAUGGCGACAUAGGGCGGACUGAAGGAGCGGUAAAACAGCCAGGUAGGUCGCAGAGAUCCACAUGAGGAUCACCCAUGU [!0.aC] | 35.7 nM | 43.2 nM | 51.2 nM | 37.9 nM | 39.1 nM
GUUAGUUACACGGCCGCCACUCUUUGGCUUGGCUCAAGCUCCCAACAUGAGGAUCACCCAUGUCAGAGGACCGGGUGAACAACGU [theeternabot_sameState_MS2_Trp_B_28] | 56.1 nM | 180 nM | 205 nM |  | 
ACAUGAGGAUCACCCAUGUGUCCUCGAAAACGAGGACCGGUACGGCCGCCACUCGAAAUAAGCUGUUGACGAAAAGUCAGCAGCA [Mat - Exclusion - Trytophan A - D21] | 74.5 nM | 173 nM | 152 nM | 316 nM | 126 nM
GGGCCUGUAAGCAGACCCACAGCGGGUGAUACCAGCAAUAAAACUUGCCCUUGGCAGCACACAGCUACAUGAGGAUCACCCAUGU [Rausis] | 36.4 nM | 92.9 nM |  | 82.4 nM | 
GUUAUAGACGGAAGGAGCGCGACCACAUGAGGAUCACCCAUGUAUUGUGUUGGUAAUAGGUCGCAGGUAGGUCGCCGGUUAAUGA [#04 Same State - Arginine B] | 27.1 nM | 50.1 nM | 38 nM | 31 nM | 36.6 nM
AGCUACUCGUUCCUCAUGUACGAGUGGCAACGAGGACCGGUACGGCCGCCACUCGAAUAAACAUGAGGAUCACCCAUGUACAAAU [T''-M-T'-T-MS2 - Design 8] | 42.9 nM | 168 nM | 179 nM |  | 
UCGAUGGUAUCUGAUACCAGUAGCGUGCGUUACAUGAGGAUCACCCAUGUGCCUAUACUUUACCCUUGGCAGCAGUGGAUUCGAU [theeternabot_sameState_MS2_Theo_B_22] | 57.1 nM | 144 nM |  | 241 nM | 
CGCACAUGAGGAUCACCCAUGUGAGGGCGGCGAGGACCGGUACGGCCGCCACUCGCAGGACAUGAGGAUCACCCAUGUGCCGCCG [SSTA DOUBLE!!! :-D] | 32.5 nM | 397 nM | 501 nM | 351 nM | 548 nM
CAAACAUGAGGAUCACCCAUGUAAUCAGAUACCAGUGACGAAAGUCACCCUUGGCAGCUGAGUACAUAUUGGCAGAGGUGUUUGA [EThA NP+V+V2 #7] | 41.4 nM | 94.2 nM |  | 64.4 nM | 
AACUUCGCAUAGGAAAACUAUGUGAAGAAUCGAGGACCGGUACGGCCGCCACUCGUCCUCAACAUGAGGAUCACCCAUGUAAUAA [Mat - Exclusion - Trytophan A - D4] | 22.1 nM | 25.4 nM | 22.6 nM |  | 
AGUAUCAGUGGAAGGAGCGUCGCGAAUGCCACAUGAGGAUCACCCAUGUCGCCUUGAGCGCGACAGGUAGGUCGCCACGGUAGGC [SS-ArgB3] | 53.2 nM | 174 nM | 338 nM | 140 nM | 208 nM
CGGUCGGUCGGUCGGUGAGUAUGGGAUGAAGGAGCGUGGGAAGCUACAGGUAGGUCGCAUCCGGGACAUGAGGAUCACCCAUGUU [#19 Same State - Arginine A] | 19.8 nM | 43.3 nM | 41.7 nM | 25.1 nM | 27.7 nM
GGACUAACCAGAAGGAGCGACACGCAGAAACUGCAAUUUCCUCUACACGAGGAUCACCCGUGUCAGGUAGGUCGCUGGUUAGUCG | 50 nM | 74.8 nM | 65 nM | 54 nM | 53.1 nM
UAAAUACAUGAGGAUCACCCAUGUUUGGAUACCAGAUAUGACAUUAUCCCUUGGCAGCCAUUCGUUCCAAAUGCUAUUGUGAAGG [theeternabot_sameState_MS2_Theo_A_26] | 20.6 nM | 30.8 nM |  | 22 nM | 
UGUAUGUGAACUGAUACCAGACCUCAAUCUUGAGGAUCACCCAAGGAGGACGAAAGUCCGGUCCCUUGGCAGCAGUUCACAUACU [ThBS - Unstable 2] | 162 nM | 737 nM | 40.5 nM | 1390 nM | 664 nM
GCAGACAUGAGGAUCACCCAUGUACUUGGGCGAGGACCGGUACGGCCGCCACUCGUAGACUUGACGAGGAAAUGUUCUCGCAGGG [theeternabot_sameState_MS2_Trp_A_24] | 22.1 nM | 31.6 nM | 28.4 nM |  | 
